In the supplement of paper PMC9170038:

Key:
[1] = system: MS2 coat protein; assay: apparent KD of MS2 coat protein, switch OFF state (with FMN for OFF switches, without FMN for ON switches); designed switch direction (-1 OFF switch, 1 ON switch): 1; higher = weaker reporter binding; details: FMN input: 0 or 200 uM; Eterna round: R93 (includes R88 designs)
Procedure, shortened: (§1)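 Designed RNA switches were made by on-chip transcription from Illumina sequencing clusters and then titrated with SNAP-549-labelled MS2 coat protein. Twofold steps ran from 0.7 or 1.5 nM to 3 µM, each lasting 0.8–1.5 h early and 10–20 min late, in 100 mM Tris-HCl pH 7.5, 80 mM KCl, 4 mM MgCl2, without or with constant ligand. Apparent KD is the per-design median of normalised cluster binding-curve fits.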

[2] = system: MS2 coat protein; assay: apparent KD of MS2 coat protein, switch ON state; designed switch direction (-1 OFF switch, 1 ON switch): 1; higher = weaker reporter binding; details: FMN input: 0 or 200 uM; Eterna round: R93 (includes R88 designs)
Procedure, shortened: as §1

CUGGACAUAGUACAGGAUAUAUGAAUAGUCACAUGAGGAUCACCCAUGUGCAUUUAUAUGCGCACAUAGAAGGGUGGUAGUUAAG [Mat - Same state - Malcolm Mod - D140]
apparent KD of MS2 coat protein [1]: 57.9 nM
apparent KD of MS2 coat protein [2]: 180 nM

AAUAUACAUGAGGAUCACCCAUGUUUUAAUAACUGAGGAUAUACGGGUGAAAACAGCAUAGUAGAAGGCAGAAAAA [SameState1 Malc#5]
apparent KD of MS2 coat protein [1]: 89.1 nM
apparent KD of MS2 coat protein [2]: 42.2 nM

AAGAAACAUGAGGAUCACCCAUGUGAGAUAAACACAGGAUAUGCGAAAAGAAACAAAGAAGCAGAAGGGUGAAGAA [Mat - Same State 1 - Tesla mod - 55]
apparent KD of MS2 coat protein [1]: 126 nM
apparent KD of MS2 coat protein [2]: 34.9 nM

ACCCGACAUGAGGAUCACCCAUGUAAACAAUCAUGAGGAUAUCCGGAGCAAAUGCUCAAGGGAGAAGGCAUAAAAG [Onrequus]
apparent KD of MS2 coat protein [1]: 132 nM
apparent KD of MS2 coat protein [2]: 29.5 nM

GUUAGGAAGAGAGAGGAUAUCCAAAGGAAAACAUGAGGAUCACCCAUGUAAAAGGUAGGAAAUUGGGAGAAGGCUCAAGAGAGAG [salish99-ss2-079]
apparent KD of MS2 coat protein [1]: 37.5 nM
apparent KD of MS2 coat protein [2]: 31.9 nM

AAAAAACAUGAGGAUCACCCAUGUGCAAAAUUCGCAGGAUAUUCCUUUUUUAAAUGGGAGGGAGAAGGGUGUAAAA [Nob's Hobby 19 - Jieux - Same State 1]
apparent KD of MS2 coat protein [1]: 34.5 nM
apparent KD of MS2 coat protein [2]: 21.9 nM

AAAACACAUGAGGAUCACCCAUGUGCCUAAUUCGCAGGAUAUUUCUCGAUUAAAUGAUAGGAAGAAGGGUGAUAAA [Nob's Hobby 36 - Jieux - Same State 1]
apparent KD of MS2 coat protein [1]: 40.9 nM
apparent KD of MS2 coat protein [2]: 186 nM

AAAAAUCCAGCGCAGGAUAUCGCAGGGUGCACAUGAGGAUCACCCAUGUGUACCCAAACACCCUGCGAGAAGGGCGUUGGAAAAAA [SameState-I]
apparent KD of MS2 coat protein [1]: 11.1 nM
apparent KD of MS2 coat protein [2]: 9.65 nM

GAAAAACAUGAGGAUCACCCAUGUAGAAAUAUGGGAGGAUAUACAAAGACGGAAGUCAAAGUAGAAGGCCUAAAAG [Mat - Same State 1 - Eli mod - D7]
apparent KD of MS2 coat protein [1]: 71.2 nM
apparent KD of MS2 coat protein [2]: 27.9 nM

AUAAAACAUGAGGAUCACCCAUGUAGAAAUAUGGGAGGAUAUACUAGAUCGAAAGAUCUAGUAGAAGGCCUAAAAG [JL Mod of Eli 1]
apparent KD of MS2 coat protein [1]: 60.7 nM
apparent KD of MS2 coat protein [2]: 27.6 nM

AGCCAACAUGAGGAUCACCCAUGUCAAACAAGUCAAGGAUAUGGGCCUCUAAAAGGAGUACCAGAAGGUGAGAAAU [Vequatge]
apparent KD of MS2 coat protein [1]: 52.6 nM
apparent KD of MS2 coat protein [2]: 123 nM

GAAAAACAUGAGGAUCACCCAUGUGAAAAUAUGGGAGGAUAUACUAAGACGAAAGUCGAGGUAGAAGGCCUAAAAG [Same State 1.4h (Mat - Mod of Eli - )]
apparent KD of MS2 coat protein [1]: 131 nM
apparent KD of MS2 coat protein [2]: 24.7 nM

AAAAAACAUGAGGAUCACCCAUGUCGAAAGACGUGAGGAUAUGUACAGACUUCGGUCUGUACAGAAGGCACGUAAA [SS1 - 1040]
apparent KD of MS2 coat protein [1]: 33.8 nM
apparent KD of MS2 coat protein [2]: 14.3 nM

GGGAGGAAGAGAGAGGAUAUCCAAAGGAAAACAUGAGGAUCACCCAUGUAAAAGGUAGGAAAUUGGGAGAAGGCUCAAAAGAGGG [salish99-ss2-038]
apparent KD of MS2 coat protein [1]: 40.6 nM
apparent KD of MS2 coat protein [2]: 29.8 nM

AUAUGAGCUAUGGAGGAUAUCCAUAAUAAAACAUGAGGAUCACCCAUGUAAGAAAGAAAAGAAUGGGAGAAGGCCAUAGCUCAAU [SS 2 M44]
apparent KD of MS2 coat protein [1]: 13.1 nM
apparent KD of MS2 coat protein [2]: 11.6 nM

UAAUAAUAAACCAAGGAUAUGGAGUUUCCAACAUGAGGAUCACCCAUGUUUAGCAUGAAAUCGAACCAGAAGGUGGAGCCAAAUA [JR_SS002_Sub1004]
apparent KD of MS2 coat protein [1]: 42.5 nM
apparent KD of MS2 coat protein [2]: 10.8 nM

ACAAACAAAAAAGAGGAUAUCCUAAAUAAAACAUGAGGAUCACCCAUGUAAAAAAUAAUAAAAUGGGAGAAGGCUUACAACAAAC [SS2 M 24]
apparent KD of MS2 coat protein [1]: 21 nM
apparent KD of MS2 coat protein [2]: 15.6 nM

GAAAAACAUGAGGAUCACCCAUGUGUAAAUAUGGAAGGAUAUACAAAGACGGAAGUCAAAGUAGAAGGUCUAAAAG [Mat - Same State 1 - Eli mod - D18]
apparent KD of MS2 coat protein [1]: 30.3 nM
apparent KD of MS2 coat protein [2]: 24.5 nM

AGUCAACAUGAGGAUCACCCAUGUCUGAGAGCAUGAGGAUAUCUAGAUGGGCAGCAUGAUAGAGAAGGCAUGCGCC [Biongear]
apparent KD of MS2 coat protein [1]: 116 nM
apparent KD of MS2 coat protein [2]: 173 nM

GGAUAACAUGAGGAUCACCCAUGUACAUGGGUACAAGGAUAUGUAAAAUAAAACAAACAAACAGAAGGUGUAAAAA [I'm in a state]
apparent KD of MS2 coat protein [1]: 163 nM
apparent KD of MS2 coat protein [2]: 228 nM
